Laboratory results published in patent US20040166544A1 (published 2004).
Positions count from the first letter of the chain named. Several values for one entry are separate records, joined by “and”; a condition that tells them apart may be missing. Equal values may be shown once.

How the values were obtained:
[1] = target: c-Met (endogenous, on human cell lines 184B5, HCT-116, DU-145 and NCI H441) (human, UniProt P08581 25-1390); assay: cell-based or functional assay
[2] = target: T1, c-Met/Fc Chimera (R&D Systems, catalog # 358-MT-100) (human, UniProt P08581 25-932); assay: europium (DELFIA) ligand competition ELISA: biotinylated HGF binding to plate-coated c-Met/Fc Chimera, antibody titrated
T1 construct: extracellular domain; Bought reagent; also called human c-Met-Fc fusion protein; recombinant c-Met protein; Fc part of the bought chimera not given
Method: (§1) 96-well Fluoronunc plates were coated with 50 ul of 0.5 ug/ml c-Met/Fc Chimera (R&D Systems, Minneapolis Minn., catalog # 358-MT-100) in phosphate buffered saline (PBS) and the plates were incubated overnight at room temperature. Wells were washed three times with washing buffer (PBS+0.1% Tween 20), blotting the plates on paper towels between each wash. Nonspecific binding in the wells was blocked by the addition of 250 ul of blocking buffer (3.0% milk (Carnation) in PBS) to each well and incubated at room temperature for two hours.
(§2) The c-Met antibodies were diluted in reagent buffer (PBS, 0.5% BSA, 0.05% Tween-20) and titrations were performed in 96 well polypropylene plates. Biotinylated HGF (0.4 ug/ml) (R&D Systems, biotinylated with Pierce #21335 as per manufacturer's instructions) was added to each well. 50 ul of the dilutions were transferred into the Fluoronunc plates containing human c-Met-Fc fusion protein (R&D Systems, #) and the plates were incubated for two hours at room temperature. The plates were washed three times with wash buffer and blotted onto paper towels. 50 ul of europium-labeled Streptavidin (Wallac Perkin Elmer) diluted 1:1000 in Delfia assay buffer (Wallac Perkin Elmer) was added per well and the plates were incubated for one hour at room temperature. The plates were washed seven times with Delfia wash buffer (Tris buffered saline (TBS) supplemented with 0.1% Tween-20) and blotted onto paper towels. 100 ul Delfia enhancer solution (Wallac Perkin Elmer) was added to each well and the plates incubated for 5 minutes on a plate shaker at room temperature. Plates were read on a fluorescence plate reader and analyzed using GraphPad Prism software (GraphPad Software, San Diego, Calif.).

[3] = target: T2, biotinylated c-Met-Fc (R&D Systems, #358-MT-100/CF, 5.1 biotin per c-Met molecule) (human, UniProt P08581 25-932, biotinylated, 5.1 biotin per c-Met molecule (Pierce #21335)); assay: SPR (BIAcore), biotinylated c-Met-Fc captured on streptavidin chip, IgG as analyte, bivalent model
T2 construct: extracellular domain; Captured on a streptavidin (SA) chip for the BIAcore study of the IgGs; Fc part of the bought chimera not given
Method: The binding properties (on-rate, off-rate and affinity) of c-Met monoclonal antibodies (IgG or Fab versions) with human c-Met extracellular domain was determined using surface plasmon resonance, or BLAcore, technology. For the binding studies with IgG, a low density (<1 ng/mm2) of c-Met-Fc (R&D Systems, #358-MT-100/CF) containing 5.1 biotin per c-Met molecule (prepared with Pierce #21335 as per manufacturer's instructions) was captured onto a SA chip precoated with Streptavidin (BIAcore Inc.). A streptavidin flow cell without adsorbed c-Met-Fc was used as a control cell for non-specificbinding. The antibody sample to be analyzed was prepared in HEPES buffer (0.15M NaCl, 10 mM HEPES, 3.4 mM EDTA, 0.005% surfactant P-20, pH 7.4) to form a set of solutions varied in concentration from 0.78 nM to 100 nM. The HEPES buffer used as the running solution was set at a flow rate of 50 ul/min. Each sample solution was injected over the two flow cells for three minutes, followed by 5 minutes of dissociation. The flow cells were then regenerated with 4.5M MgCl₂ for one minute to remove the bound antibody for the next cycle of binding study. The net sensorgrams (subtraction of sensorgrams from the negative control flow cell as well as that from the buffer blank) obtained for each set of samples were processed simultaneously in a global fitting using a bivalent binding model of the BIAevaluation software program equipped with the system. The on-rate (Kₐ), off-rate (Kd) and binding affinity (KD) were determined from the fitting with KD equal to kd/kₐ.

[4] = target: T1, c-Met/Fc Chimera (R&D Systems, catalog …); assay: competition ELISA: displacement of biotinylated HGF from plate-coated c-Met/Fc chimera, IgG, n = 2
Method: as §1, §2
(§3) C-Met antibodies 1A3.3.13 (#HB-11894, ATCC Hybridoma) and 5D5.11.6 (#HB-11895, ATCC Hybridoma) were used as positive controls. MOPC-21 (#M-7894, Sigma) was used as an IgG isotype control and HB-94 (#HB-94, ATCC Hybridoma) was converted into a Fab fragment and used as a Fab isotype control. NK4-Elastase is a kringle to kringle 4 fragment resulting from digesting intact HGF purified from S-114 cells with elastase (Date et al., FEBS Lett. 420:1-6 ([…]).

[5] = target: T1, c-Met/Fc Chimera (R&D Systems, catalog …); assay: competition ELISA: displacement of biotinylated HGF from plate-coated c-Met/Fc chimera; value stands in the Fab column, n = 2
Method: as §1
The c-Met antibodies were diluted in reagent buffer (PBS, 0.5% BSA, 0.05% Tween-20) and titrations were performed in 96 well polypropylene plates. Biotinylated HGF (0.4 ug/ml) (R&D Systems, biotinylated with Pierce #21335 as per manufacturer's instructions) was added to each well. 50 ul of the dilutions were transferred into the Fluoronunc plates containing human c-Met-Fc fusion protein (R&D Systems, #) and the plates were incubated for two hours at room temperature. The plates were washed three times with wash buffer and blotted onto paper towels. […] Plates were read on a fluorescence plate reader and analyzed using GraphPad Prism software (GraphPad Software, San Diego, Calif.). […]

[6] = target: T1, c-Met/Fc Chimera (R&D Systems, catalog …); assay: europium (DELFIA) ligand competition ELISA: biotinylated HGF binding to plate-coated c-Met/Fc Chimera, Fab titrated
Method: as §1
The c-Met antibodies were diluted in reagent buffer (PBS, 0.5% BSA, 0.05% Tween-20) and titrations were performed in 96 well polypropylene plates. Biotinylated HGF (0.4 ug/ml) (R&D Systems, biotinylated with Pierce #21335 as per manufacturer's instructions) was added to each well. 50 ul of the dilutions were transferred into the Fluoronunc plates containing human c-Met-Fc fusion protein (R&D Systems, #) and the plates were incubated for two hours at room temperature. The plates were washed three times with wash buffer and blotted onto paper towels. […] Plates were read on a fluorescence plate reader and analyzed using GraphPad Prism software (GraphPad Software, San Diego, Calif.).

[7] = target: T1, c-Met/Fc Chimera (R&D Systems, catalog …); assay: competition ELISA: displacement of biotinylated HGF from plate-coated c-Met/Fc chimera, Fab, n = 2
Method: as §1, §2, §3

[8] = target: T1, c-Met/Fc Chimera (R&D Systems, catalog …); assay: SPR (BIAcore), c-Met-Fc captured on protein A CM5 chip, Fab as analyte, 1:1 Langmuir model
Method: For the binding study of Fab fragments derived from antibodies of the invention, a high density (>2 ng/mm²) of protein A was first immobilized covalently onto a CM5 sensorchip using EDC/NHS amine coupling chemistry [. The flow cell containing c-Met-Fc captured by the protein A was used as the positive control while a flow cell containing only protein A was used as the negative control. The Fab sample to be analyzed was as above for antibodies to form a set of solutions with concentration ranged from 3.9 nM to 500 nM. The HEPES buffer used as the running solution was set at a flow rate of 50 ul/min. For each cycle of binding study, low density (<1 ng/mm²) of c-Met-Fc was captured first onto the positive flow cell. Each sample solution was then injected over the two flow cells (one negative and one positive in series) for three minutes followed by 5 minutes of dissociation. The flow cells were then regenerated with 4.5M MgCl₂ for one minute to remove the bound c-Met-Fc/Fab complexes for the next cycle of binding. The net sensorgrams (subtraction of sensorgrams from the negative control flow cell as well as that from the buffer blank) obtained from the set of samples were fitted simultaneously in a global fitting using a Langmuir 1:1 binding model of the BIAevaluation program equipped with the system. The on-rate (Kₐ), off-rate (Kd) and binding affinity (KD) were determined from the fitting with KD equal to kd/kₐ.

T1 sequence (P08581 25-932, stated change not applied): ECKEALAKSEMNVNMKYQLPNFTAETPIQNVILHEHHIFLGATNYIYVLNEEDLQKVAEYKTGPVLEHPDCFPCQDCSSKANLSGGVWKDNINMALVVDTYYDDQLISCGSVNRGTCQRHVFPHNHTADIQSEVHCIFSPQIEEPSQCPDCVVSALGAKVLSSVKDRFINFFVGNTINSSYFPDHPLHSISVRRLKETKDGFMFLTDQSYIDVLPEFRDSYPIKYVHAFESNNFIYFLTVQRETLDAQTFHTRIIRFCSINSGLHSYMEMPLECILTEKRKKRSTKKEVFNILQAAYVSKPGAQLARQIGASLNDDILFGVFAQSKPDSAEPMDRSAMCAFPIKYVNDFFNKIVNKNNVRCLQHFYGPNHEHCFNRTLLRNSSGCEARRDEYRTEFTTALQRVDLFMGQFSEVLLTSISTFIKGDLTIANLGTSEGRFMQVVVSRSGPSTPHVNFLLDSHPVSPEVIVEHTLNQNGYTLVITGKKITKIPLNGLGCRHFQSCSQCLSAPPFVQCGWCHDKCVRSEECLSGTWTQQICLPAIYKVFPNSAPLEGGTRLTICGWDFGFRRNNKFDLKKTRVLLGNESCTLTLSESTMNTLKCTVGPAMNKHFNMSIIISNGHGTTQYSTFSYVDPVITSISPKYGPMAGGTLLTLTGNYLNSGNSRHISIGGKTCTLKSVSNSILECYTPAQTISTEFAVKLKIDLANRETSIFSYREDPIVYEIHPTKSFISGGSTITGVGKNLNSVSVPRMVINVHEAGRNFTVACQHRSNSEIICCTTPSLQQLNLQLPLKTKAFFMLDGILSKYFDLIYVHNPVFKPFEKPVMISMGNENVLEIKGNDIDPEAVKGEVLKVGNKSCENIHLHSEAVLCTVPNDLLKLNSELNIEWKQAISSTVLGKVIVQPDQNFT
T2 sequence (P08581 25-932): as the sequence (P08581 25-932, stated change not applied) above
Sequence of c-Met (endogenous, on human cell lines 184B5, HCT-116, DU-145 and NCI H441) (P08581 25-1390): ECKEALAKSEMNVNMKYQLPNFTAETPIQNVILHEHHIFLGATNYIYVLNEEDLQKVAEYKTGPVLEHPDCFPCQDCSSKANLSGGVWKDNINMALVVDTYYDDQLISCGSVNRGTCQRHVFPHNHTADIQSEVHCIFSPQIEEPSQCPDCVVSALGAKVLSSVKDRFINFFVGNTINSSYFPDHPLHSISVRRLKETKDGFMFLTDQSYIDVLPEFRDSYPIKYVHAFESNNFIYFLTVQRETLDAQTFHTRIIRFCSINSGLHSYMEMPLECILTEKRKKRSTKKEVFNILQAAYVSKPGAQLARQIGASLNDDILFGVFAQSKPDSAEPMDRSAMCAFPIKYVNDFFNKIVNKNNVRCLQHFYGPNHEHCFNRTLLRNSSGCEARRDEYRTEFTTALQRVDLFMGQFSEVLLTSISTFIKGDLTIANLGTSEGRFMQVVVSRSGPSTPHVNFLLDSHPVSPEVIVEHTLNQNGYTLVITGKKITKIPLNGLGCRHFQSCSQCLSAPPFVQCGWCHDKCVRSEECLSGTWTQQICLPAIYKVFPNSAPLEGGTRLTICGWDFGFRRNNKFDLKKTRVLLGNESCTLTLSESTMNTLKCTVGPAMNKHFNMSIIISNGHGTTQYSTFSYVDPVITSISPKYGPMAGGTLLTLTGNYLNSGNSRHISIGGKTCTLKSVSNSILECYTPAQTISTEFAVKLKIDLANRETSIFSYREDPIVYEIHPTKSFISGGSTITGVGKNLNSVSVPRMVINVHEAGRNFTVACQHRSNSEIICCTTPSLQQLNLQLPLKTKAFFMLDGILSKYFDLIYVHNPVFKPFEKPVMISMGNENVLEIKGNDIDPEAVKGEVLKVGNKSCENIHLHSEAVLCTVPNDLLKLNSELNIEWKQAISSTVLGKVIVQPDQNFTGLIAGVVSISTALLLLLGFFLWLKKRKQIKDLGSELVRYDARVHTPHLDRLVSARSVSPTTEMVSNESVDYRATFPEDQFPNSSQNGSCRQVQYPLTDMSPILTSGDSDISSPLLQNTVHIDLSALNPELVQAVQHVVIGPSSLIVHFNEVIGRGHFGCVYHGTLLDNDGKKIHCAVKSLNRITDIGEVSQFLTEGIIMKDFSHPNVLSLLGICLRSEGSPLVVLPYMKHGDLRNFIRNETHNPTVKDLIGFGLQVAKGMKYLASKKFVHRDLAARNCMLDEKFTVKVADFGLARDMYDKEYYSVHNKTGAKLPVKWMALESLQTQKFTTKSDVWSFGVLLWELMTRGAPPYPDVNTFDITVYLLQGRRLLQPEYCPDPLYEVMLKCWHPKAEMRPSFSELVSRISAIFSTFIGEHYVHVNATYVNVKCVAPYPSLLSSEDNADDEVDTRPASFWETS

B1: c-Met IgG antibody 12075 (antibody, V domains shown)
VH: QVQLVQSGPEVKKPGASVEVSCKASGYTFTGDYMHWVRQAPGQGPEWMGWINPQTGVTKYAQKFQGRVTMARDTSINTAYMELRGLRSDDTAVYYCVREDHNYDLWSAYNGLDVWGQGTLVTVSS
VL: QSVLTQPPSVSAAPGQKVTISCSGSSSNIGNNHVSWYQQLAGTAPKLLIFDNDKRPSGIPDRFSGSKSGTSATLGITGLQTGDEADYYCGTWDKSPTDIYVFGSGTKLTVLG
notes: IgG of scFv PGIA-3-A11; also called 12075 IgG; IgG of scFv PGIA-03-A11 (PGIA-3-A11)
scatter assay on DU-145 cells, mean object area, agonist (alone), 100 nM IgG; the smaller the number, the more scattering [1]: 318 mean object area
scatter assay on DU-145 cells, mean object area, antagonist (w/30 pM HGF), 100 nM IgG; the smaller the number, the more scattering [1]: 289 mean object area
IC50 (read off the curve) [2]: ~3 nM
Kd [3]: 552 nM
koff [3]: 0.00845 s⁻¹
kon [3]: 15300 M⁻¹ s⁻¹
IC50 [4]: 2.55 nM

B2: c-Met IgG antibody 11978 (antibody, V domains shown)
VH: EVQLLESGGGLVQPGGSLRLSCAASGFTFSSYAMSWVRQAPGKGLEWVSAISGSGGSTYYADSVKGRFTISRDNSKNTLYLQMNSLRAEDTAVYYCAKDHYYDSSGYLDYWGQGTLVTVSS
VL: NFMLTQPHSVSESPGKTVTISCTRSSGSIAFDYVQWYQQRPGSAPTTVIYEDNQRPSGVPDRFSASIDSSSNSASLTISALKTEDEADYYCQSYDNSNSWVFGGGTKLTVLG
notes: IgG of scFv PGIA-1-A8; also called IgG of scFv PGIA-01-A8 (PGIA-1-A8)
scatter assay on DU-145 cells, mean object area, agonist (alone), 100 nM IgG; the smaller the number, the more scattering [1]: 459 mean object area
scatter assay on DU-145 cells, mean object area, antagonist (w/30 pM HGF), 100 nM IgG; the smaller the number, the more scattering [1]: 372 mean object area
IC50 (read off the curve) [2]: ~0.8 nM
IC50 [4]: 0.84 nM

B3: NK4-6His (recombinant NK4, CHO DG44/pPHA27965) (ligand)
chain: QRKRRNTIHEFKKSAKTTLIKIDPALKIKTKKVNTADQCANRCTRNKGLPFTCKAFVFDKARKQCLWFPFNSMSSGVKKEFGHEFDLYENKDYIRNCIIGKGRSYKGTVSITKSGIKCQPWSSMIPHEHSFLPSSYRGKDLQENYCRNPRGEEGGPWCFTSNPEVRYEVCDIPQCSEVECMTCNGESYRGLMDHTESGKICQRWDHQTPHRHKFLPERYPDKGFDDNYCRNPDGQPRPWCYTLDPHTRWEYCAIKTCADNTMNDTDVPLETTECIQGQGEGYRGTVNTIWNGIPCQRWDSQYPHEHDMTPENFKCKDLRENYCRNPDGSESPWCFTTDPNIRVGYCSQIPNCDMSHGQDCYRGNGKNYMGNLSQTRSGLTCSMWDKNMEDLHRHIFWEPDASKLNENYCRNPDDDAHGPWCYTGNPLIPWDYCPISRCEGDTTPTIVHHHHHH
notes: domain: NK4; also called NK4-His
IC50 [5]: > 125 nM

B4: NK4-Elastase (ligand, UniProt P14210 32-478, looked up)
chain: QRKRRNTIHEFKKSAKTTLIKIDPALKIKTKKVNTADQCANRCTRNKGLPFTCKAFVFDKARKQCLWFPFNSMSSGVKKEFGHEFDLYENKDYIRNCIIGKGRSYKGTVSITKSGIKCQPWSSMIPHEHSFLPSSYRGKDLQENYCRNPRGEEGGPWCFTSNPEVRYEVCDIPQCSEVECMTCNGESYRGLMDHTESGKICQRWDHQTPHRHKFLPERYPDKGFDDNYCRNPDGQPRPWCYTLDPHTRWEYCAIKTCADNTMNDTDVPLETTECIQGQGEGYRGTVNTIWNGIPCQRWDSQYPHEHDMTPENFKCKDLRENYCRNPDGSESPWCFTTDPNIRVGYCSQIPNCDMSHGQDCYRGNGKNYMGNLSQTRSGLTCSMWDKNMEDLHRHIFWEPDASKLNENYCRNPDDDAHGPWCYTGNPLIPWDYCPISRCEGDTTPTIV
notes: domain: kringle to kringle 4 fragment
IC50 [5]: 900 nM and 551 nM

B5: c-Met IgG antibody 12119 (antibody, V domains shown)
VH: QLQLQESGPGLVKPSGTLSLTCAVSGGSISTSDWWSWVRRPPGKGLEWIGEIYHSGSTNYHPSLKSRVTISLDKSKNQFSLKLSSVTAADTAVYYCAREGGHSGSYPLDYWGRGTLVTVSS
VL: NFMLTQPHSVSESPGKTVTISCARSSGSIASNYVQWYQQRPGSSPTTLIYEDRQRPSGVPDRFSGSIDSSSNSASLTISGLKTEDEADYYCQSYDSSDHVVFGGGTKLTVLG
notes: IgG of scFv PGIA-5-A1; also called 12119 IgG; IgG of scFv PGIA-05-A1 (PGIA-5-A1)
scatter assay on DU-145 cells, mean object area, agonist (alone), 100 nM IgG; the smaller the number, the more scattering [1]: 285 mean object area
scatter assay on DU-145 cells, mean object area, antagonist (w/30 pM HGF), 100 nM IgG; the smaller the number, the more scattering [1]: 293 mean object area
IC50 (read off the curve) [2]: ~0.7 nM
Kd [3]: 13 nM
koff [3]: 0.00112 s⁻¹
kon [3]: 86000 M⁻¹ s⁻¹
IC50 [4]: 0.64 nM

B6: c-Met 11994 Fab (Fab, V domains shown)
VH: B5 VH with L2V, R113K
VL: NFMLTQPHSVSESPGKTVTISCTRSSGSIASNYVQWYQQRPGSSPTTVIYEDNQRPSGVPDRFSGSIDSSSNSASLTISGLKTEDEADYYCQSYDSSNQGVVFGGGTKLTVLG
notes: VH and VL limits counted as for the IgG; also called 11994-50; Fab fragment derived from c-Met antibody 11994
IC50 (read off the curve) [6]: ~3 nM
IC50 [7]: 24.6 nM
Kd [8]: 13.8 nM
koff [8]: 0.00528 s⁻¹
kon [8]: 383000 M⁻¹ s⁻¹

B7: c-Met IgG antibody 11994 (antibody, V domains shown)
VH: B5 VH with L2V, R113K
VL: B6 VL
notes: IgG of scFv PGIA-3-A9; also called 11994 IgG; 11994-50
IC50 (read off the curve) [2]: ~0.7 nM
Kd [3]: 8.4 nM
koff [3]: 0.000759 s⁻¹
kon [3]: 90600 M⁻¹ s⁻¹
IC50 [4]: 0.58 nM
